The data set concerns the molecule itself. Description: flow cytometry FRET between anti-CD277-PE (donor) and anti-CD277-DyLight 680 (acceptor) on HEK 293 cells, medium or pamidronate (ABP). Background: In flow cytometry, cells or beads pass a laser one at a time.

We go through one protein from patent US12161669 (UMC UTRECHT HOLDING B V, dated 2024).

B1: CD277 (butyrophilin BTN3A1) expressed on cells (Daudi, HEK 293, EBV-LCL 48) (receptor)
chain: not shown
notes: whole, on cells; The anti-CD277 antibodies may also see other BTN3 isoforms; also called CD277J
Regarding B1, the binding result was “binds”.
